From article PMC10663459

Experiments:
[1] = biological target: VRC34.01_combo1 Fab; test: BLI; settings: n = 3 independent experiments; parent: est. 1.0; read off a plot
[2] = biological target: fusion peptide V1 (ITC peptide) (HIV-1); test: ITC
[3] = biological target: fusion peptide V1 (ITC peptide); test: ITC; settings: parent: est. 33; read off a plot
[4] = biological target: BG505 SOSIP trimer with FP v3 (AIGLGAMF); test: yeast display FACS sort with NGS; settings: Round 3 high-affinity sort, read off a plot
[5] = biological target: BG505 SOSIP trimer with FP Thai (AVGIGAMI); test: yeast display FACS sort with NGS; settings: Round 3 high-affinity sort, read off a plot
[6] = biological target: BG505 SOSIP trimer with FP v1 ([…]); test: yeast display FACS sort with NGS; settings: Round 3 high-affinity sort, VH-SSM library; parent: est. 1.8; read off a plot
[7] = biological target: fusion peptide FP_v1 (V1: […]) (HIV-1); test: ITC
[8] = VH-SSM library, parent: est. 1.4
[9] = VL-SSM library, parent: est. 0.4

His-tagged fusion peptide (residue 512-521), wild type (BLI peptide) A512G
ratio to parent [1]: 0.88

His-tagged fusion peptide (residue 512-521), wild type (BLI peptide) A517G
ratio to parent [1]: 0.97

His-tagged fusion peptide (residue 512-521), wild type (BLI peptide) F519G
ratio to parent [1]: 0.82

His-tagged fusion peptide (residue 512-521), wild type (BLI peptide) G514A
ratio to parent [1]: 0.97

His-tagged fusion peptide (residue 512-521), wild type (BLI peptide) G516A
ratio to parent [1]: 0.14

His-tagged fusion peptide (residue 512-521), wild type (BLI peptide) I515A
ratio to parent [1]: 0.12

His-tagged fusion peptide (residue 512-521), wild type (BLI peptide) I515G
ratio to parent [1]: 0.01

His-tagged fusion peptide (residue 512-521), wild type (BLI peptide) V513A
ratio to parent [1]: 0.47

His-tagged fusion peptide (residue 512-521), wild type (BLI peptide) V513G
ratio to parent [1]: 0.01

His-tagged fusion peptide (residue 512-521), wild type (BLI peptide) V518A
ratio to parent [1]: 0.97

His-tagged fusion peptide (residue 512-521), wild type (BLI peptide) V518G
ratio to parent [1]: 0.83

VRC34.01 (template antibody), IgG
Kd [2]: 33 nM

VRC34.01 (template antibody), IgG H:E2K
Kd [3]: 27 nM

VRC34.01 (template antibody), IgG H:E2K; H:A33P; H:T59F
Kd [3]: 2.2 nM

VRC34.01 (template antibody), IgG H:T59F
Kd [3]: 7.5 nM

VRC34.01 Fab H:A33P
enrichment [4, 8]: 55

VRC34.01 Fab H:K12A
enrichment ([5]; VH-SSM library, parent: est. 0.7): 450

VRC34.01 Fab H:T58Q
enrichment [6]: 400

VRC34.01 Fab H:T59F
enrichment [4, 8]: 480

VRC34.01 Fab H:T59Y
enrichment [4, 8]: 2500

VRC34.01 Fab L:D1Y
enrichment [5, 9]: 580

VRC34.01 Fab L:S92T
enrichment [5, 9]: 440
enrichment ([4]; VL-SSM library, parent: est. 1.7): 110

VRC34.01 VH_T59F, IgG (antibody)
fold higher affinity than VRC34.01 [2]: 4 fold

VRC34.01-HC-E2K (antibody)
Kd [7]: 28 nM

VRC34.01-HC-T59F (antibody)
Kd [7]: 7.7 nM
stoichiometry N [7]: 0.8

VRC34.01_combo1 (VH_E2K_T59F), IgG (antibody)
fold better binding than VRC34.01 [2]: 6 fold
